{
  "source": "the supplement of paper PMC5998384",
  "key": {"HeLa Kyoto [1]": {"test_system": "HeLa Kyoto", "test": "melting temperature (median over replicates), in situ; higher = more thermally stable"}, "HeLa Kyoto [2]": {"test_system": "HeLa Kyoto", "test": "solubility change mitosis vs G1/S (difference of NP-40 vs SDS log2 ratios) (log2 ratio difference); higher = more soluble in mitosis"}, "HeLa Kyoto [3]": {"test_system": "HeLa Kyoto", "test": "solubility in G1/S (NP-40 vs SDS abundance) (log2 ratio); higher = more soluble", "details": "cell cycle stage: G1/S"}, "HeLa Kyoto [4]": {"test_system": "HeLa Kyoto", "test": "thermal stability score vs G1/S (z-score of summed log2 fold changes over temperatures); higher = more thermally stable than in G1/S"}, "[5]": {"details": "cell cycle stage: early G1 (4.5 h after nocodazole release)"}},
  "data": [
    {"substance": "MAAVSLRLGDLVWGKLGRYPPWPGKIVNPPKDLKKPRGKKCFFVKFFGTEDHAWIKVEQLKPYHAHKEEMIKINKGKRFQQAVDAVEEFLRRAKGKDQTSSHNSSDDKNRRNSSEERSRPNSGDEKRKLSLSEGKVKKNMGEGKKRVSSGSSERGSKSPLKRAQEQSPRKRGRPPKDEKDLTIPESSTVKGMMAGPMAAFKWQPTASEPVKDADPHFHHFLLSQTEKPAVCYQAITKKLKICEEETGSTSIQAADSTAVNGSITPTDKKIGFLGLGLMGSGIVSNLLKMGHTVTVWNRTAEKCDLFIQEGARLGRTPAEVVSTCDITFACVSDPKAAKDLVLGPSGVLQGIRPGKCYVDMSTVDADTVTELAQVIVSRGGRFLEAPVSGNQQLSNDGMLVILAAGDRGLYEDCSSCFQAMGKTSFFLGEVGNAAKMMLIVNMVQGSFMATIAEGLTLAQVTGQSQQTLLDILNQGQLASIFLDQKCQNILQGNFKPDFYLKYIQKDLRLAIALGDAVNHPTPMAAAANEVYKRAKALDQSDNDMSAVYRAYIH [GLYR1]", "values": [
      {"measurement": "melting temperature", "setting": "HeLa Kyoto [1]; cell cycle stage: G1/S", "value": 53.3, "unit": "°C"},
      {"measurement": "melting temperature", "setting": "HeLa Kyoto [1]; cell cycle stage: mitosis", "value": 52.4, "unit": "°C"},
      {"measurement": "solubility change mitosis (log2)", "setting": "HeLa Kyoto [2]", "value": 1.01},
      {"measurement": "solubility in G1/S (log2)", "setting": "HeLa Kyoto [3]", "value": -1.74},
      {"measurement": "thermal stability score", "setting": "HeLa Kyoto [4]; [5]", "value": 1.22},
      {"measurement": "thermal stability score", "setting": "HeLa Kyoto [4]; cell cycle stage: mitosis", "value": -1.43}
    ]},
    {"substance": "CDC42BPA", "values": [
      {"measurement": "melting temperature", "setting": "HeLa Kyoto [1]; cell cycle stage: G1/S", "value": 49.8, "unit": "°C"},
      {"measurement": "melting temperature", "setting": "HeLa Kyoto [1]; cell cycle stage: mitosis", "value": 50.3, "unit": "°C"},
      {"measurement": "solubility change mitosis (log2)", "setting": "HeLa Kyoto [2]", "value": -0.0814},
      {"measurement": "solubility in G1/S (log2)", "setting": "HeLa Kyoto [3]", "value": -0.143},
      {"measurement": "thermal stability score", "setting": "HeLa Kyoto [4]; [5]", "value": -0.472},
      {"measurement": "thermal stability score", "setting": "HeLa Kyoto [4]; cell cycle stage: mitosis", "value": 0.207}
    ]},
    {"substance": "MRPQELPRLAFPLLLLLLLLLPPPPCPAHSATRFDPTWESLDARQLPAWFDQAKFGIFIHWGVFSVPSFGSEWFWWYWQKEKIPKYVEFMKDNYPPSFKYEDFGPLFTAKFFNANQWADIFQASGAKYIVLTSKHHEGFTLWGSEYSWNWNAIDEGPKRDIVKELEVAIRNRTDLRFGLYYSLFEWFHPLFLEDESSSFHKRQFPVSKTLPELYELVNNYQPEVLWSDGDGGAPDQYWNSTGFLAWLYNESPVRGTVVTNDRWGAGSICKHGGFYTCSDRYNPGHLLPHKWENCMTIDKLSWGYRREAGISDYLTIEELVKQLVETVSCGGNLLMNIGPTLDGTISVVFEERLRQMGSWLKVNGEAIYETHTWRSQNDTVTPDVWYTSKPKEKLVYAIFLKWPTSGQLFLGHPKAILGATEVKLLGHGQPLNWISLEQNGIMVELPQLTIHQMPCKWGWALALTNVI [FUCA2]", "values": [
      {"measurement": "melting temperature", "setting": "HeLa Kyoto [1]; cell cycle stage: G1/S", "value": 54.8, "unit": "°C"},
      {"measurement": "melting temperature", "setting": "HeLa Kyoto [1]; cell cycle stage: mitosis", "value": 54.8, "unit": "°C"},
      {"measurement": "solubility change mitosis (log2)", "setting": "HeLa Kyoto [2]", "value": -0.00976},
      {"measurement": "solubility in G1/S (log2)", "setting": "HeLa Kyoto [3]", "value": -0.00865},
      {"measurement": "thermal stability score", "setting": "HeLa Kyoto [4]; [5]", "value": 2.46},
      {"measurement": "thermal stability score", "setting": "HeLa Kyoto [4]; cell cycle stage: mitosis", "value": 3.64}
    ]},
    {"substance": "MPLVTRNIEPRHLCRQTLPSVRSELECVTNITLANVIRQLGSLSKYAEDIFGELFTQANTFASRVSSLAERVDRLQVKVTQLDPKEEEVSLQGINTRKAFRSSTIQDQKLFDRNSLPVPVLETYNTCDTPPPLNNLTPYRDDGKEALKFYTDPSYFFDLWKEKMLQDTKDIMKEKRKHRKEKKDNPNRGNVNPRKIKTRKEEWEKMKMGQEFVESKEKLGTSGYPPTLVYQNGSIGCVENVDASSYPPPPQSDSASSPSPSFSEDNLPPPPAEFSYPVDNQRGSGLAGPKRSSVVSPSHPPPAPPLGSPPGPKPGFAPPPAPPPPPPPMIGIPPPPPPVGFGSPGTPPPPSPPSFPPHPDFAAPPPPPPPPAADYPTLPPPPLSQPTGGAPPPPPPPPPPGPPPPPFTGADGQPAIPPPLSDTTKPKSSLPAVSDARSDLLSAIRQGFQLRRVEEQREQEKRDVVGNDVATILSRRIAVEYSDSEDDSSEFDEDDWSD [WASF2]", "values": [
      {"measurement": "melting temperature", "setting": "HeLa Kyoto [1]; cell cycle stage: G1/S", "value": 51.8, "unit": "°C"},
      {"measurement": "melting temperature", "setting": "HeLa Kyoto [1]; cell cycle stage: mitosis", "value": 51.5, "unit": "°C"},
      {"measurement": "solubility change mitosis (log2)", "setting": "HeLa Kyoto [2]", "value": -0.146},
      {"measurement": "solubility in G1/S (log2)", "setting": "HeLa Kyoto [3]", "value": 0.196},
      {"measurement": "thermal stability score", "setting": "HeLa Kyoto [4]; [5]", "value": 0.736},
      {"measurement": "thermal stability score", "setting": "HeLa Kyoto [4]; cell cycle stage: mitosis", "value": 1.04}
    ]},
    {"substance": "MGNSALRAHVETAQKTGVFQLKDRGLTEFPADLQKLTSNLRTIDLSNNKIESLPPLLIGKFTLLKSLSLNNNKLTVLPDEICNLKKLETLSLNNNHLRELPSTFGQLSALKTLSLSGNQLGALPPQLCSLRHLDVMDLSKNQIRSIPDSVGELQVIELNLNQNQISQISVKISCCPRLKILRLEENCLELSMLPQSILSDSQICLLAVEGNLFEIKKLRELEGYDKYMERFTATKKKFA [LRRC57]", "values": [
      {"measurement": "melting temperature", "setting": "HeLa Kyoto [1]; cell cycle stage: G1/S", "value": 53.2, "unit": "°C"},
      {"measurement": "melting temperature", "setting": "HeLa Kyoto [1]; cell cycle stage: mitosis", "value": 53.6, "unit": "°C"},
      {"measurement": "solubility change mitosis (log2)", "setting": "HeLa Kyoto [2]", "value": 0.00239},
      {"measurement": "solubility in G1/S (log2)", "setting": "HeLa Kyoto [3]", "value": 0.266},
      {"measurement": "thermal stability score", "setting": "HeLa Kyoto [4]; [5]", "value": -0.373},
      {"measurement": "thermal stability score", "setting": "HeLa Kyoto [4]; cell cycle stage: mitosis", "value": -0.56}
    ]},
    {"substance": "MAAEKQVPGGGGGGGSGGGGGSGGGGSGGGRGAGGEENKENERPSAGSKANKEFGDSLSLEILQIIKESQQQHGLRHGDFQRYRGYCSRRQRRLRKTLNFKMGNRHKFTGKKVTEELLTDNRYLLLVLMDAERAWSYAMQLKQEANTEPRKRFHLLSRLRKAVKHAEELERLCESNRVDAKTKLEAQAYTAYLSGMLRFEHQEWKAAIEAFNKCKTIYEKLASAFTEEQAVLYNQRVEEISPNIRYCAYNIGDQSAINELMQMRLRSGGTEGLLAEKLEALITQTRAKQAATMSEVEWRGRTVPVKIDKVRIFLLGLADNEAAIVQAESEETKERLFESMLSECRDAIQVVREELKPDQKQRDYILEGEPGKVSNLQYLHSYLTYIKLSTAIKRNENMAKGLQRALLQQQPEDDSKRSPRPQDLIRLYDIILQNLVELLQLPGLEEDKAFQKEIGLKTLVFKAYRCFFIAQSYVLVKKWSEALVLYDRVLKYANEVNSDAGAFKNSLKDLPDVQELITQVRSEKCSLQAAAILDANDAHQTETSSSQVKDNKPLVERFETFCLDPSLVTKQANLVHFPPGFQPIPCKPLFFDLALNHVAFPPLEDKLEQKTKSGLTGYIKGIFGFRS [SRP68]", "values": [
      {"measurement": "melting temperature", "setting": "HeLa Kyoto [1]; cell cycle stage: G1/S", "value": 50.7, "unit": "°C"},
      {"measurement": "melting temperature", "setting": "HeLa Kyoto [1]; cell cycle stage: mitosis", "value": 49.4, "unit": "°C"},
      {"measurement": "solubility change mitosis (log2)", "setting": "HeLa Kyoto [2]", "value": 0.209},
      {"measurement": "solubility in G1/S (log2)", "setting": "HeLa Kyoto [3]", "value": -0.033},
      {"measurement": "thermal stability score", "setting": "HeLa Kyoto [4]; [5]", "value": -0.295},
      {"measurement": "thermal stability score", "setting": "HeLa Kyoto [4]; cell cycle stage: mitosis", "value": -0.156}
    ]},
    {"substance": "MTELRQRVAHEPVAPPEDKESESEAKVDGETASDSESRAESAPLPVSADDTPEVLNRALSNLSSRWKNWWVRGILTLAMIAFFFIIIYLGPMVLMIIVMCVQIKCFHEIITIGYNVYHSYDLPWFRTLSWYFLLCVNYFFYGETVTDYFFTLVQREEPLRILSKYHRFISFTLYLIGFCMFVLSLVKKHYRLQFYMFGWTHVTLLIVVTQSHLVIHNLFEGMIWFIVPISCVICNDIMAYMFGFFFGRTPLIKLSPKKTWEGFIGGFFATVVFGLLLSYVMSGYRCFVCPVEYNNDTNSFTVDCEPSDLFRLQEYNIPGVIQSVIGWKTVRMYPFQIHSIALSTFASLIGPFGGFFASGFKRAFKIKDFANTIPGHGGIMDRFDCQYLMATFVNVYIASFIRGPNPSKLIQQFLTLRPDQQLHIFNTLRSHLIDKGMLTSTTEDE [CDS2]", "values": [
      {"measurement": "melting temperature", "setting": "HeLa Kyoto [1]; cell cycle stage: G1/S", "value": 57.3, "unit": "°C"},
      {"measurement": "melting temperature", "setting": "HeLa Kyoto [1]; cell cycle stage: mitosis", "value": 56, "unit": "°C"},
      {"measurement": "solubility change mitosis (log2)", "setting": "HeLa Kyoto [2]", "value": -0.168},
      {"measurement": "solubility in G1/S (log2)", "setting": "HeLa Kyoto [3]", "value": -0.102},
      {"measurement": "thermal stability score", "setting": "HeLa Kyoto [4]; [5]", "value": -3.65},
      {"measurement": "thermal stability score", "setting": "HeLa Kyoto [4]; cell cycle stage: mitosis", "value": -6.01}
    ]}
  ]
}
